Reference: publication PMC6310155

Biological target: MmRIPK3 (S02-H303) kinase domain, N-terminal histidine tag (mouse)
Assay: SEC

Question: Which stoichiometry N does the source give for “MmRIPK3 (S02-H303) kinase domain, N-terminal histidine tag (domain or fragment)” here?
Answer: 2
